Source: PMC10819241
Where two headings read alike, the source gives them in different places.

Experiments:
[1] = target: CTB-DV1EDIII (after TEV cleavage of hRID-CTB-DV1EDIII) (not stated | dengue virus serotype 1 (DenKor-07 strain)) (UniProt P01556)
[2] = target: CTB-DV1EDIII (after TEV cleavage of hRID-CTB-DV1EDIII) (not stated | dengue virus serotype 1 (DenKor-07 strain)) (UniProt P01556); assay: SEC
[3] = target: CTB-DV1EDIII (after TEV cleavage of hRID-CTB-DV1EDIII) (not stated | dengue virus serotype 1 (DenKor-07 strain)) (UniProt P01556); assay: SDS-PAGE without DTT and boiling (native SDS-PAGE)

Measured: stoichiometry N

CTB-DV1EDIII (after TEV cleavage of hRID-CTB-DV1EDIII) (from UniProt P01556 22-124)
5: all assays above
